Target: human HB-EGF on cells (membrane type and cell membrane-bound HB-EGF of human cancer cell lines) (human) (UniProt Q99075)
Test: cell-based or functional assay

Chain of human HB-EGF on cells (membrane type and cell membrane-bound HB-EGF of human cancer cell lines) (human) (Q99075 63-148 limits assumed): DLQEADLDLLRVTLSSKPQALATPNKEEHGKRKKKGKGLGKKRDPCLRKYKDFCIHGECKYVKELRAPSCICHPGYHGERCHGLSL

B1: anti-HB-EGF humanized antibody HV0LV0 (antibody, V domains shown)
VH: QVQLVQSGAEVKKPGASVKVSCKASGYTFTTYGITWVRQAPGQGLEWMGEIFPGSGNTYYNEKFKGRVTITADKSTSTAYMELSSLRSEDTAVYYCARESFSDGYYGYFDYWGQGTLVTVSS
VL: DIVMTQSPDSLAVSLGERATINCKSSQSLLYSTNQKNSLAWYQQKPGQPPKLLIYWASTRESGVPDRFSGSGSGTDFTLTISSLQAEDVAVYYCQQYYRYPLTFGQGTKLEIK
For B1, the ADCC activity relative to KM3966 (fold of KM3966) was 0.1.

— patent US20110034673A1
